Measured values from paper PMC9407403 (Proceedings of the National Academy of Sciences of the …, 2022).

Target: T1, SARS-CoV-2 WT spike (S) protein (SARS-CoV-2 prototype Wuhan-Hu-1 …, UniProt P0DTC2)
T1 construct: source: bought: Sino Biological Inc., purified
Assay: cryo-EM structure
Settings: both partners purified

B1: Fab fragment of nAb X10 (Fab, V domains shown)
VH: EVQLQQSGPELVKPGASVKISCKTSGYTFTEYTLHWVKQSHGKSLEWIGGFDPNFGGATYNLKFEDKATLTVDKSSNTAYMELRSLTSEDSAVFYCARGDYGTSYAYFDFWGQGTTLTVSS
VL: DIVLTQSPASLAVSLGQRAAISCRASQSVSTSSHNYVHWYQQRPGQPPKLLIKYASNLECGVPARFSGSGSGTDFTLNIHPVEEEDSAAYYCQHSWEIPYTFGGGTKLEIK
binding result: binds

B2: Fab fragment of nAb X01 (Fab, V domains shown)
VH: EIQLQQSGPELVAPGASVKVSCKASGYAFTSYNMYWVRQSHGKSLEWIGYIVPYNGGTTYNQEFKGKATLTVDKSSNTAYIHLNSLTSEDSAVYYCAKEGTYYGYDGVLADWGQGTLVT
VL: DIQMTQSSSYLSVSLGGRVTITCKASDHINNWLAWYQQKPGNAPRLLISGVTNLETGVPSRFSGSGSGKNFTLSIASLQTEDVATYYCQQYWSFPWTFGGGTKLEIR
binding result: binds
